This is an account of results in article PMC3412864 (PLoS ONE, 2012).

The target in data set [1] is T1, Gh-ChrR (Novacetimonas hansenii, UniProt D5QFC5).
T1 construct: gene GXY_09224; full length (193 native residues) plus C-terminal 6xHis tag kept; E. coli BL21(DE3), codon-optimised
As to the kind of experiment: chromate reduction rate. Format: biochemical. Particulars: 200 µM NADPH, 5 µM enzyme, 50 mM Tris-HCl, 100 mM NaCl, pH 7.4.

Data set [2] addresses T1, Gh-ChrR. Briefly: initial velocities, ordered bireactant model with substrate inhibition. It counts as biochemical. Particulars: competitive with chromate, dead-end FMN-enzyme-NADH complex. From the text: initial velocities, ordered bireactant model with substrate inhibition on Gh-ChrR | Ki is the dissociation constant of the dead-end product of FMN-Gh-ChrR-NADH
The target of data set [3] is T1, Gh-ChrR. As to the kind of experiment: X-ray crystal structure, […] Å; absorbance stoichiometry. Format: binding. Conditions: non-covalent, one FMN per monomer, co-purified.
Substrate in the data set “purified protein”: [O]=[Cr](=[O])([OH])[OH]
Briefly: purified protein. Particulars: 100 µM NADH, 5 µM enzyme, 50 mM Tris-HCl, 100 mM NaCl, pH 7.4, 37°C, aerobic.

Data set [4] deals with the molecule itself. As to the kind of experiment: crystal structure; hanging-drop vapor diffusion at room temperature; protein ~9 mg/mL in 20 mM Tris-HCl, 150 mM NaCl, pH 7.4; precipitant 0.5% PEG4000, 10% isopropanol, 0.1 M HEPES pH 7.5; 2.25 Å; four monomers in the asymmetric unit.
Substrate in data set [5]: NC(=O)C1=CN([C@@H]2O[C@H](COP(=O)(O)OP(=O)(O)OC[C@H]3O[C@@H](n4cnc5c(N)ncnc54)[C@H](O)[C@@H]3O)[C@@H](O)[C@H]2O)C=CC1
Briefly: initial velocities, ordered bireactant model with substrate inhibition. Particulars: varied chromate and NADH, Tris-HCl pH 7.4. Format: biochemical, Novacetimonas hansenii. From the text:
initial velocities, ordered bireactant model with substrate inhibition on […] | KmB is the Michaelis-Menten constant of NADH

For the molecule `NC(=O)C1=CN([C@@H]2O[C@H](COP(=O)(O)OP(=O)(O)OC[C@H]3O[C@@H](n4cnc5c(N)ncnc54)[C@H](OP(=O)(O)O)[C@@H]3O)[C@@H](O)[C@H]2O)C=CC1` [NADPH], on Gh-ChrR [1], the chromate reduction rate entry is “Both NADH and NADPH support maximal chromate reduction by Gh-ChrR”.

`NC(=O)C1=CN([C@@H]2O[C@H](COP(=O)(O)OP(=O)(O)OC[C@H]3O[C@@H](n4cnc5c(N)ncnc54)[C@H](O)[C@@H]3O)[C@@H](O)[C@H]2O)C=CC1` [NADH] came in with a Ki on Gh-ChrR [2] of 3.5 ± 0.7 µM.

For the molecule `Cc1cc2nc3c(=O)[nH]c(=O)nc-3n(C[C@H](O)[C@H](O)[C@H](O)COP(=O)(O)O)c2cc1C` [FMN], on Gh-ChrR [3], the “X-ray crystal structure, 2.25 Å; absorbance stoichiometry” value is “Gh-ChrR crystallized with one molecule of FMN associated with each protein monomer”.

B1: Gluconacetobacter hansenii chromate reductase (Gh-ChrR) (enzyme, Gluconacetobacter hansenii ATCC 23769)
chain: MTTTSPLHFVTLLGSLRKASFNAAVARALPEIAPEGIAITPLGSIGTFPHYSQDVQEEGFPAPVLTMAQQIATADAVVIVTPEYNYSVPGVLKNAIDWLSRVSPQPLAGKPVALVTASPGMIGGARAQYHLRQSLVFLDAYVLNRPEAMIGQVTGKVDAQTLELSDVATREFLARQLDALAALARTLSPRAIT
notes: Gh-ChrR, NAD(P)H-dependent FMN reductase from Gluconacetobacter hansenii ATCC 23769 (ZP_06834583); 193 native residues; codon-optimised synthetic gene in pJexpress411; Monomer 21.3 kDa (193 native residues plus a six-residue C-terminal poly-histidine tag); In the crystal 5-6 N-terminal and 7-9 C-terminal residues are not seen; also called putative chromate reductase; source: E. coli BL21(DE3), …
The Km is the substrate concentration at which the rate is half of its maximum. Usually Vmax stands for the top rate of the reaction or transport when substrate is in excess. The term kcat denotes the number of substrate molecules converted per active site and unit of time at saturation. A word on the kcat/Km: it is the turnover number divided by the Michaelis constant. In general, stoichiometry N refers to a count of units in the complex or per binding partner. Regarding B1, in “purified protein”, the Km is 240 ± 70 µM, the Vmax amounted to 0.75 µmol/min/mg, the catalytic constant (kcat) came to 0.25 s⁻¹ and the specificity constant (kcat/Km) amounted to 1000 M⁻¹ s⁻¹. In data set [4], the “stoichiometry N” value worked out at 4. Besides, in data set [5], the Michaelis-Menten constant (Km) is 7 ± 1 µM.

B2: Gh-ChrR (Novacetimonas hansenii ATCC 23769; R101A) (protein)
chain: MTTTSPLHFVTLLGSLRKASFNAAVARALPEIAPEGIAITPLGSIGTFPHYSQDVQEEGFPAPVLTMAQQIATADAVVIVTPEYNYSVPGVLKNAIDWLSAVSPQPLAGKPVALVTASPGMIGGARAQYHLRQSLVFLDAYVLNRPEAMIGQVTGKVDAQTLELSDVATREFLARQLDALAALARTLSPRAIT
For the molecule B2, in the data set “purified protein”, the Km stood at 1900 ± 600 µM, the maximum rate (Vmax) turned out to be 0.24 µmol/min/mg, the kcat was 0.08 s⁻¹ and the kcat/Km turned out to be 40 M⁻¹ s⁻¹.

B3: Gh-ChrR (Novacetimonas hansenii ATCC 23769; S118A) (protein)
chain: MTTTSPLHFVTLLGSLRKASFNAAVARALPEIAPEGIAITPLGSIGTFPHYSQDVQEEGFPAPVLTMAQQIATADAVVIVTPEYNYSVPGVLKNAIDWLSRVSPQPLAGKPVALVTAAPGMIGGARAQYHLRQSLVFLDAYVLNRPEAMIGQVTGKVDAQTLELSDVATREFLARQLDALAALARTLSPRAIT
On to B3, for which, in “purified protein”, the Michaelis constant (Km) is 600 ± 20 µM, the Vmax turned out to be 0.9 µmol/min/mg, the catalytic constant (kcat) worked out at 0.3 s⁻¹ and the kcat/Km was determined as 500 M⁻¹ s⁻¹.

B4: Gh-ChrR (Novacetimonas hansenii ATCC 23769; N85A) (protein)
chain: MTTTSPLHFVTLLGSLRKASFNAAVARALPEIAPEGIAITPLGSIGTFPHYSQDVQEEGFPAPVLTMAQQIATADAVVIVTPEYAYSVPGVLKNAIDWLSRVSPQPLAGKPVALVTASPGMIGGARAQYHLRQSLVFLDAYVLNRPEAMIGQVTGKVDAQTLELSDVATREFLARQLDALAALARTLSPRAIT
As to B4, in “purified protein”, the Km worked out at 600 ± 100 µM, the maximum rate (Vmax) was found to be 0.16 µmol/min/mg, the kcat was 0.053 s⁻¹ and the kcat/Km turned out to be 90 M⁻¹ s⁻¹.
